The data set is described as follows: total protein half-life in vivo (active degradation + dilution); higher = more stable protein.
Where [1] appears, read: E. coli NCM3722 delta-clpP delta-lon delta-hslV, growth: N-lim chemostat, doubling time 6 h.
The mark [2] stands for this setting: E. coli NCM3722 delta-clpP, growth: N-lim chemostat, doubling time 6 h.
The mark [3] stands for this setting: E. coli NCM3722 delta-hslV, growth: N-lim chemostat, doubling time 6 h.
[4] abbreviates: wild type E. coli NCM3722, growth: C-lim chemostat, doubling time 3 h.
The mark [5] stands for this setting: wild type E. coli NCM3722, growth: C-lim chemostat, doubling time 6 h.
Setting [6] is: wild type E. coli NCM3722, growth: N-lim chemostat, doubling time 6 h.
Setting [7] is: wild type E. coli NCM3722, growth: P-lim chemostat, doubling time 6 h.
Where [8] appears, read: E. coli NCM3722 delta-lon, growth: N-lim chemostat, doubling time 6 h.
[9] abbreviates: E. coli NCM3722 delta-smpB, growth: N-lim chemostat, doubling time 6 h.
The mark [10] stands for this setting: wild type E. coli NCM3722, growth: C-lim chemostat, doubling time 12 h.
[11] abbreviates: wild type E. coli NCM3722, growth: N-lim chemostat, doubling time 12 h.
Setting [12] is: wild type E. coli NCM3722, growth: P-lim chemostat, doubling time 12 h.

± gives the standard deviation of the averaged measurements.

Turning to “MLAFCRSSLKSKKYIIILLALAAIAGLGTHAAWSSNGLPRIDNKTLARLAQQHPVVVLFRHAERCDRSTNQCLSDKTGITVKGTQDARELGNAFSADIPDFDLYSSNTVRTIQSATWFSAGKKLTVDKRLLQCGNEIYSAIKDLQSKAPDKNIVIFTHNHCLTYIAKDKRDATFKPDYLDGLVMHVEKGKVYLDGEFVNH”, the “total protein half-life in vivo” value reads like this: under setting [1], above 8 h; under setting [2], 5.63 h; under setting [3], 4.99 ± 1.1 h; under setting [4], 3 ± 1.2 h; under setting [5], 4.93 ± 1.4 h; under setting [6], 4.21 ± 2.1 h. The “total protein half-life in vivo” value under setting [7] came to 5.09 ± 0.5 h.
With “MDMHSGTFNPQDFAWQGLTLTPAAAIHIRELVAKQPGMVGVRLGVKQTGCAGFGYVLDSVSEPDKDDLLFEHDGAKLFVPLQAMPFIDGTEVDFVREGLNQIFKFHNPKAQNECGCGESFGV”, the “total protein half-life in vivo” value is, setting by setting: under setting [1], 4.64 ± 0.11 h; under setting [2], 2.79 h; under setting [8], 3.64 h; under setting [9], 2.14 h; under setting [4], 1.94 ± 0.049 h; under setting [5], 3.99 ± 0.5 h. Further, the “total protein half-life in vivo” value under setting [10] was 4.5 h; the “total protein half-life in vivo” value under setting [6] was 1.86 ± 0.16 h; the “total protein half-life in vivo” value under setting [11] came to 2.58 h; the “total protein half-life in vivo” value under setting [7] came to 2.69 h; the “total protein half-life in vivo” value under setting [12] amounted to 4.79 ± 0.6 h.
Consider “MSDMAERLALHEFTENAYLNYSMYVIMDRALPFIGDGLKPVQRRIVYAMSELGLNASAKFKKSARTVGDVLGKYHPHGDSACYEAMVLMAQPFSYRYPLVDGQGNWGAPDDPKSFAAMRYTESRLSKYSELLLSELGQGTADWVPNFDGTLQEPKMLPARLPNILLNGTTGIAVGMATDIPPHNLREVAQAAIALIDQPKTTLDQLLDIVQGPDYPTEAEIITSRAEIRKIYENGRGSVRMRAVWKKEDGAVVISALPHQVSGARVLEQIAAQMRNKKLPMVDDLRDESDHENPTRLVIVPRSNRVDMDQVMNHLFATTDLEKSYRINLNMIGLDGRPAVKNLLEILSEWLVFRRDTVRRRLNYRLEKVLKRLHILEGLLVAFLNIDEVIEIIRNEDEPKPALMSRFGLTETQAEAILELKLRHLAKLEEMKIRGEQSELEKERDQLQGILASERKMNNLLKKELQADAQAYGDDRRSPLQEREEAKAMSEHDMLPSEPVTIVLSQMGWVRSAKGHDIDAPGLNYKAGDSFKAAVKGKSNQPVVFVDSTGRSYAIDPITLPSARGQGEPLTGKLTLPPGATVDHMLMESDDQKLLMASDAGYGFVCTFNDLVARNRAGKALITLPENAHVMPPVVIEDASDMLLAITQAGRMLMFPVSDLPQLSKGKGNKIINIPSAEAARGEDGLAQLYVLPPQSTLTIHVGKRKIKLRPEELQKVTGERGRRGTLMRGLQRIDRVEIDSPRRASSGDSEE [P0AFI2]”, for which the “total protein half-life in vivo” value under setting [1] was determined as 5.85 ± 0.14 h; the “total protein half-life in vivo” value under setting [2] is 6.82 ± 1.4 h; the “total protein half-life in vivo” value under setting [3] was found to be 3.67 ± 0.47 h; the “total protein half-life in vivo” value under setting [8] amounted to 3.93 ± 0.34 h; the “total protein half-life in vivo” value under setting [9] was 3.2 ± 0.17 h; the “total protein half-life in vivo” value under setting [4] amounted to 2.44 ± 0.17 h. Moreover, the “total protein half-life in vivo” value came to 3.745 ± 0.031 h under setting [5]; 5.99 ± 0.32 h under setting [10]; 3.42 ± 0.22 h under setting [6]; 5.17 ± 0.29 h under setting [11]; 2.947 ± 0.025 h under setting [7]; 5.43 ± 0.56 h under setting [12].
In the case of “MPTKPPYPREAYIVTIEKGKPGQTVTWYQLRADHPKPDSLISEHPTAQEAMDAKKRYEDPDKE [P0AAN5]”, the “total protein half-life in vivo” value under setting [2] amounted to 5.03 ± 0.57 h; the “total protein half-life in vivo” value under setting [3] is 5.08 ± 0.48 h; the “total protein half-life in vivo” value under setting [8] is 5.38 ± 1.4 h; the “total protein half-life in vivo” value under setting [9] was 4.72 ± 0.16 h; the “total protein half-life in vivo” value under setting [4] is 3.69 h; the “total protein half-life in vivo” value under setting [5] turned out to be 3.08 h. Moreover, the “total protein half-life in vivo” value runs as follows: under setting [10], 7.61 h; under setting [6], 4.1 ± 0.042 h; under setting [11], 8.6 ± 1.8 h; under setting [7], 5.3 h; under setting [12], 9.63 ± 1.6 h.
Take “MQKYISEARLLLALAIPVILAQIAQTAMGFVDTVMAGGYSATDMAAVAIGTSIWLPAILFGHGLLLALTPVIAQLNGSGRRERIAHQVRQGFWLAGFVSVLIMLVLWNAGYIIRSMENIDPALADKAVGYLRALLWGAPGYLFFQVARNQCEGLAKTKPGMVMGFIGLLVNIPVNYIFIYGHFGMPELGGVGCGVATAAVYWVMFLAMVSYIKRARSMRDIRNEKGTAKPDPAVMKRLIQLGLPIALALFFEVTLFAVVALLVSPLGIVDVAGHQIALNFSSLMFVLPMSLAAAVTIRVGYRLGQGSTLDAQTAARTGLMVGVCMATLTAIFTVSLREQIALLYNDNPEVVTLAAHLMLLAAVYQISDSIQVIGSGILRGYKDTRSIFYITFTAYWVLGLPSGYILALTDLVVEPMGPAGFWIGFIIGLTSAAIMMMLRMRFLQRLPSAIILQRASR”: the “total protein half-life in vivo” value was 5.68 ± 0.19 h under setting [1]; 6.61 h under setting [2]; 4.97 ± 0.54 h under setting [8]; 5.45 ± 0.68 h under setting [9]; 3.6 h under setting [4]; above 16 h under setting [10]. Further, the “total protein half-life in vivo” value under setting [6] was found to be 6.87 ± 0.42 h, the “total protein half-life in vivo” value under setting [11] turned out to be 12 ± 0.72 h, the “total protein half-life in vivo” value under setting [7] came to 5.52 ± 0.6 h and the “total protein half-life in vivo” value under setting [12] came out at 12.7 ± 0.75 h.
In the case of “MDINNKARIHWACRRGMRELDISIMPFFEHEYDSLSDDEKRIFIRLLECDDPDLFNWLMNHGKPADAELEMMVRLIQTRNRERGPVAI”, the “total protein half-life in vivo” value by setting is: under setting [1], 5.79 ± 0.24 h; under setting [4], 3 h; under setting [10], 6.71 h; under setting [7], 4.97 h; under setting [12], 11.3 ± 2.2 h.
As for “MTKTVSTSKKPRKQHSPEFRSEALKLAERIGVTAAARELSLYESQLYNWRSKQQNQQTSSERELEMSTEIARLKRQLAERDEELAILQKAATYFAKRLK [P0CF66]”, the “total protein half-life in vivo” value came to 3.53 h under setting [10] and 5.25 ± 0.29 h under setting [12].
Take “MKKIALAGLAGMLLVSASVNAMSISGQAGKEYTNIGVGFGTETTGLALSGNWTHNDDDGDVAGVGLGLNLPLGPLMATVGGKGVYTNPNYGDEGYAAAVGGGLQWKIGNSFRLFGEYYYSPDSLSSGIQSYEEANAGARYTIMRPVSIEAGYRYLNLSGKDGNRDNAVADGPYVGVNASF”: the “total protein half-life in vivo” value under setting [2] is above 8 h; the “total protein half-life in vivo” value under setting [3] was above 8 h; the “total protein half-life in vivo” value under setting [8] turned out to be 6.46 ± 1.8 h; the “total protein half-life in vivo” value under setting [9] was found to be 5.13 h; the “total protein half-life in vivo” value under setting [4] came out at 2.53 ± 0.17 h; the “total protein half-life in vivo” value under setting [6] is 4.53 ± 0.26 h. Besides, the “total protein half-life in vivo” value was 4.72 h under setting [7] and 13 h under setting [12].

Source of the values: the supplement of paper PMC11246515.
